Data: publication PMC6923591
pKd: −log10 of the molar value.

Experiments:
[1] = biological target: Ptpn6 Y208N C-SH2 domain (recombinant C-terminal SH2 domain of Ptpn6/SHP-1 with Y208N); experiment: ITC
[2] = biological target: Ptpn6 wt C-SH2 domain (recombinant C-terminal SH2 domain of Ptpn6/SHP-1); experiment: ITC

## FcγR2b phosphopeptide
[1]
  pKd: 4.98
[2]
  pKd: 4.70
